The source of these data is patent US20140274782A1, “AFFINITY REAGENTS AND METHODS FOR DETECTION, PURIFICATION, AND PROTEOMIC ANALYSIS OF METHYLATED PROTEINS” (The Board of Trustees of the Leland Stanford Junior …, priority 2013, published 2014).

The subject of one assay is 3×MBT domain of L3MBTL1. Put plainly: Triple SILAC pull-down, 3xMBT/3xMBTD355N ratio (cytoplasmic, nuclear and chromatin fractions of 293T cells).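 As to all read-outs here: proteins quantified with MaxQuant, requiring at least two unique peptides and quantification in both label directions, normalized to the mean of proteins from a digested loading control.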 It is filed as binding, human. Conditions: for 3xMBT/D355N UNC Heavy: experiment with UNC0638 in heavy SILAC media; for 3xMBT/D355N UNC Light: experiment with UNC0638 in light SILAC media.
A further assay has as its target T1, G9a and GLP (Homo sapiens, UniProt Q96KQ7+Q9H9B1).
T1 sequence (Q96KQ7 2-1210 limits assumed): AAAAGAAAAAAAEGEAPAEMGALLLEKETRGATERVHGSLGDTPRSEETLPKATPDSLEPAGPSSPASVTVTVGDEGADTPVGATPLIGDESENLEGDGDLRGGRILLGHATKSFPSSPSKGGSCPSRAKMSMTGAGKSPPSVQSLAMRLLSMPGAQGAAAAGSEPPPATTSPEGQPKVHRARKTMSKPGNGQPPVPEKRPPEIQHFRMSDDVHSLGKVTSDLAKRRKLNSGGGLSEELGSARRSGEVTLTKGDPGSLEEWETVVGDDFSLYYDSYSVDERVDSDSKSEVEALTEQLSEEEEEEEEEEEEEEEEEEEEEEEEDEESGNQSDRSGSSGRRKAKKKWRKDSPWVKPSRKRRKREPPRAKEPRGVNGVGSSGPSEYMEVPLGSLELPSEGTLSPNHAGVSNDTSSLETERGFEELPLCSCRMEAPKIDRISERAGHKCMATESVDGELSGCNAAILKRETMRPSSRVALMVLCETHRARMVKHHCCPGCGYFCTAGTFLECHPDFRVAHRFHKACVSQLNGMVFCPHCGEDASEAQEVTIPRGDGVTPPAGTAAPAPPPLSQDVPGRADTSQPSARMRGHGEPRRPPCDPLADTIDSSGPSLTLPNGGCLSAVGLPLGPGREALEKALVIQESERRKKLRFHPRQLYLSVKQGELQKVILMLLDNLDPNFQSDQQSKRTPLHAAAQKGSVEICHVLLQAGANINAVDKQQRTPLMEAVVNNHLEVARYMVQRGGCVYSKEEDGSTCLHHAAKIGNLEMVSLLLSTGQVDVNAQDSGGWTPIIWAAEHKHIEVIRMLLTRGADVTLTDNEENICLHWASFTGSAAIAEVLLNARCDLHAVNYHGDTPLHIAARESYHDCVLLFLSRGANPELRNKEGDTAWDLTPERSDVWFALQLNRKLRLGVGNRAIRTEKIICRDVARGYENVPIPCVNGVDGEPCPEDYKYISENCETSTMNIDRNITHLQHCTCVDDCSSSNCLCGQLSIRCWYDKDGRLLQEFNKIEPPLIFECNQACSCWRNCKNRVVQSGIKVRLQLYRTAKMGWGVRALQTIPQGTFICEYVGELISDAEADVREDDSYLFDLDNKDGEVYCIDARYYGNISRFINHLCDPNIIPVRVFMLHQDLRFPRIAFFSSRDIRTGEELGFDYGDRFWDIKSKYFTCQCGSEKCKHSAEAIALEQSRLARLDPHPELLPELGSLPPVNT
T1 sequence (Q9H9B1 2-1298 limits assumed): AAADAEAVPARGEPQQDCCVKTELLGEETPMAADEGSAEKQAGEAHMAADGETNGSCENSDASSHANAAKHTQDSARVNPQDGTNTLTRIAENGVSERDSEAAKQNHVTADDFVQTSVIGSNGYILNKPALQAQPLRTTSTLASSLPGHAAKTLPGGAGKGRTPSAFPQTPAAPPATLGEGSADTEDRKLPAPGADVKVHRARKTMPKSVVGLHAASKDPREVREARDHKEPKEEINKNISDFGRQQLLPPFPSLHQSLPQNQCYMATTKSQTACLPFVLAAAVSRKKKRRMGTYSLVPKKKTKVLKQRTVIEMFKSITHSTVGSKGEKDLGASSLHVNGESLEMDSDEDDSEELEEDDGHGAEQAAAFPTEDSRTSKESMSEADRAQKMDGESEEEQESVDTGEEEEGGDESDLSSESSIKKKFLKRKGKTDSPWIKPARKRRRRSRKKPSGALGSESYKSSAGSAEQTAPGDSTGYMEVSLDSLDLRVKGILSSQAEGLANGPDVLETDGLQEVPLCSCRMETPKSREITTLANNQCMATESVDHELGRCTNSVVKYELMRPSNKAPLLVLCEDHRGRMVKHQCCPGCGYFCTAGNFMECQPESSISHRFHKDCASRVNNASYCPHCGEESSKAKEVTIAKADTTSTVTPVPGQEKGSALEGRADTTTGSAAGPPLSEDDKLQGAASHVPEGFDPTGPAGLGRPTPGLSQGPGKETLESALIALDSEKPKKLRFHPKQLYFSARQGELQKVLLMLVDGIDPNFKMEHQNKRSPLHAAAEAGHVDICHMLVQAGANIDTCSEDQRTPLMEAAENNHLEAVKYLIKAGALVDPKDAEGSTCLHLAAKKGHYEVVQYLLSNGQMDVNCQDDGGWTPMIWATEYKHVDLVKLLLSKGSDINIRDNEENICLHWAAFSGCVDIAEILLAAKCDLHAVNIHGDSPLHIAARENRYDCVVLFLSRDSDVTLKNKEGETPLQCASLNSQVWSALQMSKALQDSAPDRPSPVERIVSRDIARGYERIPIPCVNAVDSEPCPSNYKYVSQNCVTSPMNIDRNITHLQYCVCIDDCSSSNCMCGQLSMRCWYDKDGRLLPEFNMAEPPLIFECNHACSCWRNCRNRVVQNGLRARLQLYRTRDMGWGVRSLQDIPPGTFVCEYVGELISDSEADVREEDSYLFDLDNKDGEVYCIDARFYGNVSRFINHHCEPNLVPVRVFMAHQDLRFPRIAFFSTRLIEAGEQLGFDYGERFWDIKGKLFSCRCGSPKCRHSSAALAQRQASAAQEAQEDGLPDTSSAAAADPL
Put plainly: Triple SILAC pull-down after UNC0638 treatment of 293T cells, DMSO/UNC0638 ratio of protein captured by 3×MBT.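 As to all read-outs here: mass spectrometry (Q-Exactive) SILAC quantitation, DMSO/UNC0638 ratio computed after subtracting 3×MBTD355N mutant pull-down background, only proteins with at least twofold 3×MBT over mutant signal considered.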 It is filed as cell-based. More on the design: endogenous in cells; host or cells: HEK 293T. Particulars: for Relative to UNC0638 UNC Heavy: UNC0638 in heavy SILAC media; for Relative to UNC0638 UNC Light: UNC0638 in light SILAC media; for Relative to UNC0638 Average: average of UNC Light and UNC Heavy experiments.

Setting [1] is: SILAC ratio 3xMBT vs 3xMBTD355N pull-down, 293T cells, all values in log base 2.
Setting [2] is: SILAC ratio DMSO relative to UNC0638, pull-down with 3xMBT, all values in log base 2.
The mark [3] stands for this setting: SILAC ratio, pull-down 3xMBT vs 3xMBTD355N.
Setting [4] is: SILAC ratio DMSO/UNC0638 of protein pulled down with 3xMBT.

B1: SNRNP40 (protein, UniProt Q96DI7 1-357, looked up)
U5 small nuclear …: MIEQQKRKGPELPLVPVKRQRHELLLGAGSGPGAGQQQATPGALLQAGPPRCSSLQAPIMLLSGHEGEVYCCKFHPNGSTLASAGFDRLILLWNVYGDCDNYATLKGHSGAVMELHYNTDGSMLFSASTDKTVAVWDSETGERVKRLKGHTSFVNSCYPARRGPQLVCTGSDDGTVKLWDIRKKAAIQTFQNTYQVLAVTFNDTSDQIISGGIDNDIKVWDLRQNKLTYTMRGHADSVTGLSLSSEGSYLLSNAMDNTVRVWDVRPFAPKERCVKIFQGNVHNFEKNLLRCSWSPDGSKIAAGSADRFVYVWDTTSRRILYKLPGHAGSINEVAFHPDEPIIISASSDKRLYMGEIQ
As for B1, in the assay with 3×MBT domain of L3MBTL1 (setting [1]), the “3xMBT/D355N UNC Heavy” value is 2.39 log base 2 and the “3xMBT/D355N UNC Light” value amounted to 2.64 log base 2. Besides, in the assay with G9a and GLP (setting [2]), the “Relative to UNC0638 UNC Heavy” value came out at 0.27 log base 2 and the “Relative to UNC0638 UNC Light” value is reported as −0.12 log base 2. Also, the “Relative to UNC0638 Average” value in the assay with G9a and GLP (all values in log base 2) turned out to be 0.07 log base 2.

B2: PPIL4 (protein, UniProt Q8WUA2 1-492, looked up)
Peptidyl-prolyl cis-trans …: MAVLLETTLGDVVIDLYTEERPRACLNFLKLCKIKYYNYCLIHNVQRDFIIQTGDPTGTGRGGESIFGQLYGDQASFFEAEKVPRIKHKKKGTVSMVNNGSDQHGSQFLITTGENLDYLDGVHTVFGEVTEGMDIIKKINETFVDKDFVPYQDIRINHTVILDDPFDDPPDLLIPDRSPEPTREQLDSGRIGADEEIDDFKGRSAEEVEEIKAEKEAKTQAILLEMVGDLPDADIKPPENVLFVCKLNPVTTDEDLEIIFSRFGPIRSCEVIRDWKTGESLCYAFIEFEKEEDCEKAFFKMDNVLIDDRRIHVDFSQSVAKVKWKGKGGKYTKSDFKEYEKEQDKPPNLVLKDKVKPKQDTKYDLILDEQAEDSKSSHSHTSKKHKKKTHHCSEEKEDEDYMPIKNTNQDIYREMGFGHYEEEESCWEKQKSEKRDRTQNRSRSRSRERDGHYSNSHKSKYQTDLYERERSKKRDRSRSPKKSKDKEKSKYR
As for B2, in the assay with 3×MBT domain of L3MBTL1 (setting [3]), the “3xMBT/D355N UNC Heavy” value is on record as 1.63 log base 2 and the “3xMBT/D355N UNC Light” value turned out to be 2.38 log base 2. Also, in the assay with G9a and GLP (setting [4]), the “Relative to UNC0638 UNC Heavy” value is recorded as 0.46 log base 2 and the “Relative to UNC0638 UNC Light” value is on record as 0.50 log base 2. Besides, the “Relative to UNC0638 Average” value with G9a and GLP was determined as 0.48 log base 2. The “Candidate G9a/GLP target” value in the assay with G9a and GLP (reduced association with 3xMBT after UNC0638 treatment) is “✓”.

B3: UBXN1 (protein, UniProt Q04323 2-297, looked up)
UBX domain-containing protein …: AELTALESLIEMGFPRGRAEKALALTGNQGIEAAMDWLMEHEDDPDVDEPLETPLGHILGREPTSSEQGGLEGSGSAAGEGKPALSEEERQEQTKRMLELVAQKQREREEREEREALERERQRRRQGQELSAARQRLQEDEMRRAAEERRREKAEELAARQRVREKIERDKAERAKKYGGSVGSQPPPVAPEPGPVPSSPSQEPPTKREYDQCRIQVRLPDGTSLTQTFRAREQLAAVRLYVELHRGEELGGGQDPVQLLSGFPRRAFSEADMERPLQELGLVPSAVLIVAKKCPS
B3: in the assay on 3×MBT domain of L3MBTL1 (setting [1]), the “3xMBT/D355N UNC Heavy” value was 0.62 log base 2 and the “3xMBT/D355N UNC Light” value is 1.91 log base 2. In the assay with G9a and GLP (setting [2]), the “Relative to UNC0638 UNC Heavy” value was 0.12 log base 2 and the “Relative to UNC0638 UNC Light” value amounted to 0.04 log base 2. In addition, the “Relative to UNC0638 Average” value in the assay with G9a and GLP (all values in log base 2) was 0.08 log base 2.
